Read-outs that look alike come from different tables or passages of the source.
Tests used:
[1] = target: T1, Claudin 18.2 (CLDN18.2), expressed on CHOS-CLDN 18.2 / HEK293-CLDN 18.2 / HCC827-CLDN 18.2 cells (human, UniProt P56856-2 1-261); experiment: FACS, CHOS-CLDN18.2 cells, 20 µg/ml
T1 construct: whole, on cells; The species is not repeated for the CHOS-CLDN 18.2 cells; also called claudin-18A2
Protocol: (§1) The initial concentration of the antibody was 20 μg/ml, it was diluted at 1:4, and incubated at 4° C. for 60 min.

[2] = target: T1, Claudin 18.2 (CLDN18.2), expressed on …; experiment: FACS, CHOS-CLDN18.2 cells, 10 µg/ml
Protocol: (§2) The initial concentration of the antibody was 20 μg/mkit was diluted at 1:4, and incubated at 4° C. for 60 min.

[3] = target: T1, Claudin 18.2 (CLDN18.2), expressed on …; experiment: FACS, CHOS-CLDN18.2 cells
Protocol: as §1

[4] = target: T1, Claudin 18.2 (CLDN18.2), expressed on …; experiment: FACS, CHOS-CLDN18.2 cells, 0.005 µg/ml
Protocol: as §1

[5] = target: T1, Claudin 18.2 (CLDN18.2), expressed on …; experiment: FACS, CHOS-CLDN18.2 cells, 0.020 µg/ml
Protocol: as §1

[6] = target: T1, Claudin 18.2 (CLDN18.2), expressed on …; experiment: FACS, CHOS-CLDN18.2 cells, 5 µg/ml
Protocol: as §1

[7] = target: T1, Claudin 18.2 (CLDN18.2), expressed on …; experiment: FACS, CHOS-CLDN18.2 cells, 0.313 µg/ml
Protocol: as §1

[8] = target: T1, Claudin 18.2 (CLDN18.2), expressed on …; experiment: FACS, CHOS-CLDN18.2 cells, 0 µg/ml (background)
Protocol: as §1

[9] = target: T1, Claudin 18.2 (CLDN18.2), expressed on …; experiment: FACS, MFI on CHOS-CLDN18.2 over MFI on CHOS-CLDN18.1, 10 µg/ml
Protocol: as §2

[10] = target: T1, Claudin 18.2 (CLDN18.2), expressed on …; experiment: FACS, CHOS-CLDN18.2 cells, 1.250 µg/ml
Protocol: as §1

[11] = target: T1, Claudin 18.2 (CLDN18.2), expressed on …; experiment: FACS, CHOS-CLDN18.2 cells, 0.078 µg/ml
Protocol: as §1

[12] = target: T1, Claudin 18.2 (CLDN18.2), expressed on …; experiment: FACS, CHOS-CLDN18.2 cells, 0.078 µg/ml; remark: listed apart in the source
Protocol: as §1

[13] = target: T1, Claudin 18.2 (CLDN18.2), expressed on …; experiment: FACS, CHOS-CLDN18.2 cells, 5 µg/ml; remark: listed apart in the source
Protocol: as §1

[14] = target: T1, Claudin 18.2 (CLDN18.2), expressed on …; experiment: FACS, CHOS-CLDN18.2 cells, 0 µg/ml (background); remark: listed apart in the source
Protocol: as §1

[15] = target: T1, Claudin 18.2 (CLDN18.2), expressed on …; experiment: FACS, CHOS-CLDN18.2 cells; remark: listed apart in the source
Protocol: as §1

[16] = target: T1, Claudin 18.2 (CLDN18.2), expressed on …; experiment: FACS, CHOS-CLDN18.2 cells, 0.020 µg/ml; remark: listed apart in the source
Protocol: as §1

[17] = target: T1, Claudin 18.2 (CLDN18.2), expressed on …; experiment: FACS, CHOS-CLDN18.2 cells, 0.313 µg/ml; remark: listed apart in the source
Protocol: as §1

[18] = target: T1, Claudin 18.2 (CLDN18.2), expressed on …; experiment: FACS, CHOS-CLDN18.2 cells, 1.250 µg/ml; remark: listed apart in the source
Protocol: as §1

[19] = target: T1, Claudin 18.2 (CLDN18.2), expressed on …; experiment: FACS, CHOS-CLDN18.2 cells, 0.005 µg/ml; remark: listed apart in the source
Protocol: as §1

[20] = target: T1, Claudin 18.2 (CLDN18.2), expressed on …; experiment: FACS, CHOS-CLDN18.2 cells, 20 µg/ml; remark: listed apart in the source
Protocol: as §1

Binder | FACS reading [1] | MFI [2] | EC50 [3] [µg/mL] | max [3] | FACS reading [4] | FACS reading [5] | FACS reading [6] | FACS reading [7] | FACS reading [8] | CLDN18.2/CLDN18.1 (MFI ratio) [9] | FACS reading [12] | FACS reading [13] | FACS reading [14] | EC50 [15] [µg/mL] | max [15] | FACS reading [16] | FACS reading [17] | FACS reading [18] | FACS reading [19] | FACS reading [20] | also measured
QP14371435 (antibody, human IgG1, kappa, V domains shown, Humanized from QP190191) VH: EVQLVESGGGLVKPGGSLRLSCAASGFTFSNYAMSWVRQAPGKGLEWVASIISGGRTYYLDSEKGRFTISRDNAKNSLYLQMNSLRAEDTAVYYCTRIYYGNSFDYWGQGTLVTVSS VL: DIVMTQSPDSLAVSLGERATISCKSSQSLLNSGNQKNYLTWYQQKPGQPPKLLIYWASTRESGVPDRFTGSGSGTDFTLTISSLQAEDVAVYYCQNDYSYPFTFGQGTKLEIKR | 134000 | 512000 | 0.38 | 197000 | 4130 | 10200 | 197000 | 72000 | 732 | 497 | – | – | – | – | – | – | – | – | – | – | FACS reading [10]: 145000; FACS reading [11]: 18000
QP14361435 (antibody, human IgG1, kappa, V domains shown, Humanized from QP190191) VH: EVQLVESGGGLVKPGGSLRLSCAASGFTFSNYAMSWVRQAPGKGLEWVSSIISGGRTYYLDSEKGRFTISRDNAKNSLYLQMNSLRAEDTAVYYCTRIYYGNSFDYWGQGTLVTVSS VL: DIVMTQSPDSLAVSLGERATISCKSSQSLLNSGNQKNYLTWYQQKPGQPPKLLIYWASTRESGVPDRFTGSGSGTDFTLTISSLQAEDVAVYYCQNDYSYPFTFGQGTKLEIKR | 183000 | 504000 | 0.466 | 182000 | 3390 | 8520 | 182000 | 75900 | 713 | 550 | – | – | – | – | – | – | – | – | – | – | FACS reading [10]: 141000; FACS reading [11]: 23600
QP190191 (antibody, human IgG1, V domains shown, Chimeric; also called 36A2; mouse-derived chimeric antibody QP190191) VH: EVKLVESGGGLVKPGGSLKLSCAASGFTFSNYAMSWVRQTPEKRLEWVASIISGGRTYYLDSEKGRFTISRDNARNNLYLQMSSLRSEDTAMYYCTRIYYGNSFDYWGQGTTLTVSS VL: DIVMTQSPSSQTVTAGEKVTMSCKSSQSLLNSGNQKNYLTWYQQKPGQPPKLLIYWASTRESGVPDRFTGSGSGTDFTLTISNMQAEDLAVYYCQNDYSYPFTFGSGTKLEIK | 88700 | 450000 | 0.354 | 148000 | 2840 | 8000 | 148000 | 54200 | 729 | 423 | – | – | – | – | – | – | – | – | – | – | FACS reading [10]: 114000; FACS reading [11]: 15700
QP201202 (antibody, human IgG1, V domains shown, Chimeric; also called 44C6) VH: EVQLQQSGPELVKPGASVKMSCKASGYTFTNYFVHWVKQKPGQGLEWIGYINPYNDDTKYNEKFKGKATLTSDKSSSTAYMDLSSLTSEDSAVYYCLSLRFFAYWGQGTLVTVSA VL: DIVMTQSPSSLTVTAGEKVTMSCKSSQSLLNSGNQKNYLTWYQQKPGQAPKLLIYWASTRESGVPDRFIGSGSGTDFTLTISHVQAEDLAVYFCQNDYSYPLTFGAGTNLELK | – | 439000 | – | – | – | – | – | – | – | 381 | 12600 | 81100 | 732 | 0.417 | 113000 | 4770 | 38000 | 92700 | 2260 | 113000 | –
QP14581454 (antibody, human IgG1, kappa, V domains shown, Humanized from QP201202) VH: QVQLVQSGAEVKKPGASVKVSCKASGYTFTNYFVHWVKQAPGQGLEWIGYINPYNDDTKYNEKFKGKATLTRDTSTSTVYMELSSLRSEDTAVYYCLSLRFFAYWGQGTLVTVSS VL: DIVMTQSPDSLAVSLGERATISCKSSQSLLNSGNQKNYLTWYQQKPGQAPKLLIYWASTRESGVPDRFSGSGSGTDFTLTISSVQAEDVAVYFCQNDYSYPLTFGGGTKVEIKR | – | 502000 | – | – | – | – | – | – | – | 506 | 11500 | 73700 | 732 | 0.363 | 73700 | 4470 | 30800 | 56100 | 2370 | 58600 | –
QP14561454 (antibody, human IgG1, kappa, V domains shown, Humanized from QP201202) VH: QVQLVQSGAEVKKPGASVKVSCKASGYTFTNYFVHWVRQAPGQGLEWMGYINPYNDDTKYNEKFKGRVTMTRDTSTSTVYMELSSLRSEDTAVYYCLSLRFFAYWGQGTLVTVSS VL: DIVMTQSPDSLAVSLGERATISCKSSQSLLNSGNQKNYLTWYQQKPGQAPKLLIYWASTRESGVPDRFSGSGSGTDFTLTISSVQAEDVAVYFCQNDYSYPLTFGGGTKVEIKR | – | 477000 | – | – | – | – | – | – | – | 430 | 13400 | 114000 | 732 | 0.573 | 146000 | 6390 | 44800 | 107000 | 2470 | 146000 | –
QP14581453 (antibody, human IgG1, kappa, V domains shown, Humanized from QP201202) VH: QVQLVQSGAEVKKPGASVKVSCKASGYTFTNYFVHWVKQAPGQGLEWIGYINPYNDDTKYNEKFKGKATLTRDTSTSTVYMELSSLRSEDTAVYYCLSLRFFAYWGQGTLVTVSS VL: DIVMTQSPDSLAVSLGERATISCKSSQSLLNSGNQKNYLTWYQQKPGQAPKLLIYWASTRESGVPDRFSGSGSGTDFTLTISSLQAEDVAVYYCQNDYSYPLTFGGGTKVEIKR | – | 554000 | – | – | – | – | – | – | – | 581 | 13600 | 83000 | 732 | 0.425 | 104000 | 5920 | 33300 | 91400 | 2420 | 104000 | –

— US20230183352A1 (published 2023)
